Key:
[1] = target: GST::PacC (30-195*) (Aspergillus nidulans? (plasmid …, UniProt Q00202 30-195)); assay: EMSA
[2] = target: T1, AtfA::6His (Aspergillus fumigatus AkuB, UniProt Q4WY05 1-555); assay: EMSA
T1 sequence: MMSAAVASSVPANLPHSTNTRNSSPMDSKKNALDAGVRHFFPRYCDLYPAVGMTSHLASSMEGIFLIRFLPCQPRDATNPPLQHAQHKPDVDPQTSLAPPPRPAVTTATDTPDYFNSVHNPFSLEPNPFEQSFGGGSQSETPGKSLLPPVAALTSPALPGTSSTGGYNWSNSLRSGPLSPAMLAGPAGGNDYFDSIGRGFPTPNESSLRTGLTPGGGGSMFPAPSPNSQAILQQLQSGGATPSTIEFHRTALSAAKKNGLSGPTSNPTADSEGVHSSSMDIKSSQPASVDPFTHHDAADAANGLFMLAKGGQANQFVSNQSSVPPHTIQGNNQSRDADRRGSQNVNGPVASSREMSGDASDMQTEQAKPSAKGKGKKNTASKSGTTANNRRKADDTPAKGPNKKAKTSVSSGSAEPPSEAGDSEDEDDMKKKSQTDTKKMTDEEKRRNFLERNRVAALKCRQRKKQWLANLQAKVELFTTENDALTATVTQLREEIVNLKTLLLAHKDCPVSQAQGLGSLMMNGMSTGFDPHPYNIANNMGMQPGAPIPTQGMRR

Sequence of GST::PacC (30-195*) (Aspergillus nidulans? (Q00202 30-195): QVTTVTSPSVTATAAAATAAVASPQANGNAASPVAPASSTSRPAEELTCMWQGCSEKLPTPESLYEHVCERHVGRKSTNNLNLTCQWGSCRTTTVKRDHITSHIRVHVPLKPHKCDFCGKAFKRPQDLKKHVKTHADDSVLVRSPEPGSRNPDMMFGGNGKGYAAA

B1: PacC probe (DprB promoter, -264) (dsDNA)
DNA 1: GGGTCGATCCAGGTACCGCCAGGGGTTGATATGACAG
DNA 2: GGGCTGTCATATCAACCCCTGGCGGTACCTGGATCGA
- binding result [1]: binds

B2: A-23 probe (DprA promoter) (dsDNA)
DNA 1: GGGCAGTTCAAATACAGAACGTCACAAATCTTACACA
DNA 2: GGGTGTGTAAGATTTGTGACGTTCTGTATTTGAACTG
- binding result [2]: binds

B3: A-142 probe (DprA promoter) (dsDNA)
DNA 1: GGGCTCCCCGGCTTCTTGACGTAACCCCCAGACATGA
DNA 2: GGGTCATGTCTGGGGGTTACGTCAAGAAGCCGGGGAG
- binding result [2]: binds
